Experimental data from the nanobody polyreactivity screen of Harvey et al. (2022).

Assay: yeast display, Sf9 membrane polyspecificity reagent, FACS + sequencing; frameworks hold sequencing errors
Method in brief: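 Polyreactivity labels are assigned by the sorting gate from which each nanobody was recovered. The gates were low and high (top ~1%), set on anti-HA fluorescence for expression and streptavidin fluorescence for reagent binding. Before sorting, galactose-induced (36–48 hours) yeast display cells were stained for 1 hour at 4 °C with 10% biotinylated, detergent-solubilized Sf9 membrane reagent.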

| Sequence | polyreactivity (PSR sort gate) |
| --- | --- |
| QVQLQESGGGLVQAGGSLLSCAASGTISYYREMGWYRQSPGKERELVAGIGVGTITYYADSVKGRFTISRDNAKNTVYLQMNSLKPEDTAVYYCAAHIDGNDSNAYWGQGTQVTVSS | low polyreactivity |
| QVQLVESGGGLVQAGGSLRLSCAASGRIFSVYAMGWYRQEPGKERELVAAITRNGATTYYADSVKGRFTISRDNAKNTVYLQMNSLKPEDTAVYYCAARPLFASRTKYGYWGQGTQVTVSS | high polyreactivity |
| QVQLVESVGGLVQAGGSLRLSCAASGSTFWFYTMGWYRQAPGKERELVATITSGGSTNYADSVKGRFTISRDNAKNTVYLQMNSLKPEDTAVYYCAASSVLTNHDYWGQGTQVTVSS | low polyreactivity |
| QVQLVESGGGLVQAGGSLRLSCAASGRTFRVYAIGWYRQAPGKERELVAAISGSGGSTYYADSVKGRFTISRDNAKNTVYLQMISLKPEDTAVYYCAKGSYRSYWYRAYDYWGQGTQVTVSS | low polyreactivity |
| QVQLVESGGGLVQAGGSLRLSCAASGRIIGRYAMGWYRQAPGKERELVAGITIRGGSTYYADSVKGRITISRDNAKNTVYLQMNSLKPEDTAVYYCAADDKGGLAVEYDYWGQGTQVTVSS | low polyreactivity |
| QVQLVDSGGGLVQAGGSLRLSCAAYGSTDKPNAMGWYRQAPGKQRELVAANSGSGGSTYYADTVKGRFTISRDNAKNTVYLQMNSLKPEDTAVYYCAAKRTGNGYPRSGYSRYEYWGQGTQVTVSS | high polyreactivity |
| QVQLVESGGGLVQAGGSLSLSCAASGRTFGYYTMGWYRQAPGKERELVAAINWGGSRTYYADSVKGRFTISRDNAKNTVYLEMNSLKPEDTAVYYCAADVYRQWADDSWGLGTQVTVSS | high polyreactivity |
| QVQLVESGGGLVQAGGSLRLSCAASGFIFWGNAMGWYRQAPGKERELVAAITYSGDRTYYADSVKGRFTISRDNAKNTVYLQMNSLKPEDTAVYYCNADLALRSRYGEYDYWGQGTQVTVSS | high polyreactivity |
| QVQLVESGGGLVQAGGSLRLSCAASGFIFRGYAMGWYRQAPGKERELVAAITGGGGRTYYADSVKGRFTISRDNAKNTVYLQMNSLKPEDTAVYYCARRFAYSFDYGYWGQGTQVTVSS | high polyreactivity |
| QVQLVESGGGLVQAGGSLRLSCAASGSTFVYYAMGWYRQAPGKERELVATINYNGGSTSYADSVKGRFTISRDNEKNTVYLQMNSLKPEDTAVYYCAKDRYYTWGDYWGQGTQVTVSS | low polyreactivity |
| QVQLVESGGGLVQAGGSLRLSCAASGFIFPYYAMGWYRPAPGKERELVAAITSSGGSTYYADSVKGRFTISRDNAKNTVYLQMNSLKPEDTAVYYFNAYVRRTRVYDYWGQGTLVTVSS | high polyreactivity |
| QVQLVESGGGLVQAGGSLRLSCAASGSIFSYYTMGWYRQAPGTERELVAASTRGGRTSYADSVKGRFTISRDNAKNTVYLQMNSLKPEDTAVYYCAADYWYFTHQLSTYGDNYWGQGTQVTVSS | low polyreactivity |
| QVQLLESGGGLVQAGRSLRLSCAASGRTFRIYAMGWYRQAPGKEREEVAAITRSSGSTFYADSVKGRFTISRDNAKNTVYLQMNSLKPEDTAVYYCAAEYFEWWVTYDYWGQGTQVTVSS | high polyreactivity |
| QVQLVESGGGLVQAGGSLRLSCAASGITFYRNAMGWYRQAPGKERELVAAITWNGGRTYYADSVKGRFTISRDYAKNTVYLQMNSLKPEDSAVYYCAKRYGSTQSRYVYWGQGTQVTVSS | high polyreactivity |
| QVQLVESGGGLVQAGGSLRLICAASGSTFLKYTMVWYRQAPWKERELVAAISKSGGSTYYADSVKGRFTISRDHAKNTVYLQMNSLKPEDTAVYYCAKVRSWVSSYGYGYWGQGTQVTVSS | high polyreactivity |
| QVQLVESGGGLVQAGGSLRLSCAASGSTFVPYAMGWYRQAPGKERELVAGITFSGGSTYYADSVKGRFTIPRDNAKNTVYLQMNSLKPEDTAVYYCARAGGYPLSRYGYWGQGTQVTVSS | high polyreactivity |
| QVQLVESGGGLVQAGGSLRLSCAASGRIFSRYAMGWYRQAPGKERELVAAITQSGTSTYYADSVKGRFTISRDNAKNTVYLQMKSLKPEDTAVYYCNAYRQYRYDYWGQGTQVTVSS | low polyreactivity |
